Positions count from the first letter of the chain named.
T1: human IL-11Rα on transfected cells (human, UniProt Q14626 23-422)
T1 sequence: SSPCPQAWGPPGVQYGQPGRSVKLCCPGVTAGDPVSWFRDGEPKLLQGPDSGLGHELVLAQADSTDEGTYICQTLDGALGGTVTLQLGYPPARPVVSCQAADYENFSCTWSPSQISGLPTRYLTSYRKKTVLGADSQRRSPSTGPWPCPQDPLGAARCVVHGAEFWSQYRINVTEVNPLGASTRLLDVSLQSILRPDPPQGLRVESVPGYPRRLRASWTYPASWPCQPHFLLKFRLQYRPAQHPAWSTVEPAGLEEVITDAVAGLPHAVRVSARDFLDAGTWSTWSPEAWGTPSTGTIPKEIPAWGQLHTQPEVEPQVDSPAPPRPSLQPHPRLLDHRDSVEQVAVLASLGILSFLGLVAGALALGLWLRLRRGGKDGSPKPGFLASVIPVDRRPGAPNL

T2: human IL-11Rα (form used in the assay not stated) (human, UniProt Q14626 23-363, limits assumed)
T2 construct: also called hIL-11R; hIL-11Rα
T2 sequence: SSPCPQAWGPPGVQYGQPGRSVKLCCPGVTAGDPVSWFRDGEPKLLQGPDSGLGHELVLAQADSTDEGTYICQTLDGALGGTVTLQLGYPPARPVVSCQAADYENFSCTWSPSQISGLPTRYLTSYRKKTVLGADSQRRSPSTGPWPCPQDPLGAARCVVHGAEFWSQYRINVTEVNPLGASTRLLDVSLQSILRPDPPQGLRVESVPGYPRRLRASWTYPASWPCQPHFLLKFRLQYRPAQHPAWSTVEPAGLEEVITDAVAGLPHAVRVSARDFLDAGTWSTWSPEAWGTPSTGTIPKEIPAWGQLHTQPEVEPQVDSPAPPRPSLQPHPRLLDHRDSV

B1: hu8E2-TS-115 (antibody, V domains shown)
VH: EVQLLESGGGLVQPGGSLRLSCAASGFTFSWYSMTWVRQAPGKGLEWVSSIVPHGDLTQYADSVKGRFTISRDNSKNTLYLQMNSLRAEDTAVYYCAKGPGWGSFDLWGRGTLVTVSS
VL: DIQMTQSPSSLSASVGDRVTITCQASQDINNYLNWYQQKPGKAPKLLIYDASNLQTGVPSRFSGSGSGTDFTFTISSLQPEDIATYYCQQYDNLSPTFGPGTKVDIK
B2: hu8E2-TS-306 (antibody, V domains shown)
VH: B1 VH with H54S, D56G, L57H
VL: DIQMTQSPSSLSASVGDRVTITCQASQDVDKYVEWYQQKPGKAPKLLIYDASNLQTGVPSRFSGSGSGTDFTFTISSLQPEDIATYYCQQYDNLSPTFGPGTKVDIK
B3: hu8E2-TS-151 (antibody, V domains shown)
VH: B1 VH with H54S, D56G, L57H, G99P, P100H, G101D, S104R
VL: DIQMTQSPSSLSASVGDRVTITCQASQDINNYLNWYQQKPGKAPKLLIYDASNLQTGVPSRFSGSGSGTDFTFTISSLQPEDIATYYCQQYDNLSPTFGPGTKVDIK
B4: hu8E2-TS-303 (antibody, V domains shown)
VH: B1 VH with H54S, D56G, L57H
VL: B2 VL with K31Y, Y32W
B5: hu8E2-TS-135 (antibody, V domains shown)
VH: B1 VH with H54S, D56G, L57H, G99P, P100L, G101D, S104L
VL: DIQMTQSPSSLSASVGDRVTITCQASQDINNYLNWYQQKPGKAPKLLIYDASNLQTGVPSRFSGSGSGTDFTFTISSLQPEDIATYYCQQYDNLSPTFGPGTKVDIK
B6: hu8E2-TS-305 (antibody, V domains shown)
VH: B1 VH with H54S, D56G, L57H
VL: B2 VL with D30G, K31I
B7: hu8E2-TS-213 (antibody, V domains shown)
VH: B1 VH with H54S, D56G, L57H, S104Q, D106A, L107V
VL: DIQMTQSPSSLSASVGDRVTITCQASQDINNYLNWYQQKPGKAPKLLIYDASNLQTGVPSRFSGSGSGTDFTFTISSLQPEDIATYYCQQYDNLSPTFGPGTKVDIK
B8: hu8E2-TS-156 (antibody, V domains shown)
VH: B1 VH with H54S, D56G, L57H, G99P, P100E, G101D, S104R
VL: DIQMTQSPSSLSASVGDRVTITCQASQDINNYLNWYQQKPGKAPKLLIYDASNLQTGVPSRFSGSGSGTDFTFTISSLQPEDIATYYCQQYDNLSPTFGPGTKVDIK
B9: hu8E2-TS-215 (antibody, V domains shown)
VH: B1 VH with H54S, D56G, L57H, D106W, L107Q
VL: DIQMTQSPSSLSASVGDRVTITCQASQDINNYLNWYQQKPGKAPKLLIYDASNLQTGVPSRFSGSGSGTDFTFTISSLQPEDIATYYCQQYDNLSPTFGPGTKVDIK
B10: hu8E2-TS-310 (antibody, V domains shown)
VH: B1 VH with H54S, D56G, L57H
VL: B2 VL with D30A, K31M, V33I
B11: hu8E2-TS-307 (antibody, V domains shown)
VH: B1 VH with H54S, D56G, L57H
VL: B2 VL with D30S, K31M
B12: hu8E2-TS-134 (antibody, V domains shown)
VH: B1 VH with H54S, D56G, L57H, G99P, P100E, G101D, S104L
VL: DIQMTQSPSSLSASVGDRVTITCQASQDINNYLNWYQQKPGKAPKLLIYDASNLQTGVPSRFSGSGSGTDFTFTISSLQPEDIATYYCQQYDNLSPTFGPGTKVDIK
B13: hu8E2-TS-218 (antibody, V domains shown)
VH: B1 VH with H54S, D56G, L57H, D106W, L107E
VL: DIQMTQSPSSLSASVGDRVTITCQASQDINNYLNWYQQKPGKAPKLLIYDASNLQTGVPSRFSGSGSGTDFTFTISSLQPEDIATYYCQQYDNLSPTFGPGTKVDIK
B14: hu8E2-TS-143 (antibody, V domains shown)
VH: B1 VH with H54S, D56G, L57H, G99P, P100H, G101D, S104L
VL: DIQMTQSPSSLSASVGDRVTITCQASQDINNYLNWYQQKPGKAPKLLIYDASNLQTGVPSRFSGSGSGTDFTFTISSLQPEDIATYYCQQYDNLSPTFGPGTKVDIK
B15: hu8E2-TS-129 (antibody, V domains shown)
VH: B1 VH with H54S, D56G, L57H, G99P, P100E, G101D, S104M
VL: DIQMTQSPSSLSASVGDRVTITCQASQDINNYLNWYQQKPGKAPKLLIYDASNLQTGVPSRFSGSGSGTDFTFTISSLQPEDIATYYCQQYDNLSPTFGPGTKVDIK
B16: hu8E2-TS-224 (antibody, V domains shown)
VH: B1 VH with H54S, D56G, L57H, D106W, L107T
VL: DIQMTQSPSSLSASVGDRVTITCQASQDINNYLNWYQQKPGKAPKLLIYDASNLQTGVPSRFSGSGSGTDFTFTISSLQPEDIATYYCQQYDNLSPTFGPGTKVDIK
B17: hu8E2-TS-311 (antibody, V domains shown)
VH: B1 VH with H54S, D56G, L57H
VL: B2 VL with D30S, K31Q, V33I
B18: hu8E2-TS-221 (antibody, V domains shown)
VH: B1 VH with H54S, D56G, L57H, D106W, L107Y
VL: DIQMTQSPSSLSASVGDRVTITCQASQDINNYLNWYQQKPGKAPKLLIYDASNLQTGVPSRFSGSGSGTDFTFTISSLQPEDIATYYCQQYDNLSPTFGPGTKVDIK
B19: hu8E2-TS-322 (antibody, V domains shown)
VH: B1 VH with H54S, D56G, L57H
VL: B2 VL with D30H, K31H, V33M
B20: hu8E2-TS-140 (antibody, V domains shown)
VH: B1 VH with H54S, D56G, L57H, G99P, P100N, G101D, S104L
VL: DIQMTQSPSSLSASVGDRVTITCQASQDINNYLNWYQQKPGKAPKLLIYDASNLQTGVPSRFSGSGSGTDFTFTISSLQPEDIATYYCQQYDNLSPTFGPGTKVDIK
B21: hu8E2-TS-214 (antibody, V domains shown)
VH: B1 VH with H54S, D56G, L57H, D106W, L107F
VL: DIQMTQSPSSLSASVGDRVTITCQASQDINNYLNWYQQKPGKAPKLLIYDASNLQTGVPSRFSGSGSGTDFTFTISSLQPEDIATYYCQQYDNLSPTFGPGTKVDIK
B22: hu8E2-TS-136 (antibody, V domains shown)
VH: B1 VH with H54S, D56G, L57H, G99P, P100L, G101D, S104R
VL: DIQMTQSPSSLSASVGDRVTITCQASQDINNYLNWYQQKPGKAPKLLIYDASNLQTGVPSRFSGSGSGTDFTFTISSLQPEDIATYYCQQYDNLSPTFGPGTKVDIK
B23: hu8E2-TS-313 (antibody, V domains shown)
VH: B1 VH with H54S, D56G, L57H
VL: B2 VL with D30S, K31G
B24: hu8E2-TS-222 (antibody, V domains shown)
VH: B1 VH with H54S, D56G, L57H, S104T, D106A, L107Y
VL: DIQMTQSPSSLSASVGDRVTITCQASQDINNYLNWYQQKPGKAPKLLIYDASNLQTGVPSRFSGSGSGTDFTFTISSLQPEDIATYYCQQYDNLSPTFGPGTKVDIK
B25: hu8E2-TS-133 (antibody, V domains shown)
VH: B1 VH with H54S, D56G, L57H, G99P, P100V, G101D, S104R
VL: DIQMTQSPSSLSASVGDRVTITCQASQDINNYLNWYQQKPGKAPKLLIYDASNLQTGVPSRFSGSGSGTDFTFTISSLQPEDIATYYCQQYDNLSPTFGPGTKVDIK
B26: hu8E2-TS-312 (antibody, V domains shown)
VH: B1 VH with H54S, D56G, L57H
VL: B2 VL with V29I, D30G, K31Q

What follows are binders tested against T1, human IL-11Rα on transfected cells (assay: cell-based or functional assay).

In order of falling “Fold increase in potency relative to 8E2” value:
1. B22  6 fold
2. B1  5.7 fold
3. B8  4.9 fold
4. B5  4.8 fold
5. B15  4.7 fold
6. B12  4.3 fold
7. B25  4.1 fold
8. B2  3.3 fold
9. B24  3.3 fold
10. B13  2.7 fold
11. B18  2.6 fold
12. B3  2.4 fold
13. B6  2.1 fold
14. B11  1.9 fold
15. B14  1.6 fold
16. B21  1.6 fold
17. B9  1.5 fold
18. B20  1.5 fold
19. B4  1.4 fold
20. B7  1.2 fold
21. B16  1.2 fold
22. B26  1.2 fold
23. B19  1.1 fold
24. B23  0.7 fold
25. B17  0.6 fold
26. B10  0.4 fold

In order of falling “IC50” value:
1. B10  0.84 µg/mL
2. B17  0.6 µg/mL
3. B7  0.51 µg/mL
4. B23  0.51 µg/mL
5. B20  0.42 µg/mL
6. B14  0.39 µg/mL
7. B16  0.39 µg/mL
8. B4  0.35 µg/mL
9. B9  0.34 µg/mL
10. B19  0.33 µg/mL
11. B21  0.31 µg/mL
12. B26  0.29 µg/mL
13. B1  0.26 µg/mL
14. B3  0.26 µg/mL
15. B11  0.25 µg/mL
16. B6  0.23 µg/mL
17. B25  0.23 µg/mL
18. B12  0.22 µg/mL
19. B5  0.2 µg/mL
20. B15  0.2 µg/mL
21. B18  0.2 µg/mL
22. B13  0.19 µg/mL
23. B22  0.16 µg/mL
24. B24  0.16 µg/mL
25. B2  0.15 µg/mL
26. B8  0.13 µg/mL

The binders below were run against T2, human IL-11Rα (form used in the assay …) (assay: Biacore, pH 8.5, 37°C).

In order of falling Kd:
1. B19  6.01 nM
2. B23  5.56 nM
3. B4  4.09 nM
4. B10  2.09 nM
5. B16  1.91 nM
6. B24  1.91 nM
7. B9  1.85 nM
8. B26  1.76 nM
9. B17  1.69 nM
10. B6  1.58 nM
11. B13  1.39 nM
12. B11  1.32 nM
13. B21  1.11 nM
14. B2  1.07 nM
15. B1  0.735 nM
16. B18  0.634 nM
17. B8  0.631 nM
18. B15  0.63 nM
19. B5  0.525 nM
20. B12  0.52 nM
21. B25  0.513 nM
22. B20  0.471 nM
23. B14  0.416 nM
24. B3  0.242 nM
25. B22  0.232 nM

The binders below were run against T2, human IL-11Rα (form used in the assay …) (assay: Biacore, pH 8.5, 37°C; some heterogeneity observed, an accurate KD difficult to determine).

B7 showed a Kd of over 9 nM.

Source: US20160031999A1 (CSL, published 2016)
